# Test system: Escherichia coli TOP10
# Test: shrunken log2 fold change of peptide-encoding DNA abundance (4.5 h post-induction vs induction); higher = less antimicrobial activity (less host growth inhibition)
# Details: time post-induction: 4.5 h; library: site-saturation at positions 5, 18, 19, 20
# 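Further: peptides expressed intracellularly from a pBAD plasmid library in pooled LB shake-flask culture, induced with 0.3% L-arabinose, DNA abundance read by NGS, three biological replicates, DESeq2 with apeglm shrinkage.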
row,Sequence,shrunken log2 fold change
1,RRIRRRPPRLPRPRPRPKPQPRP,0.403
2,RRIRLRPPRLPRPRPRPWTYPRP,0.0062
3,RRIRGRPPRLPRPRPRPYPCPRP,-0.0571
4,RRIRIRPPRLPRPRPRPQLLPRP,-0.0818
5,RRIRMRPPRLPRPRPRPMPWPRP,0.169
6,RRIRPRPPRLPRPRPRPIQSPRP,-0.083
7,RRIRQRPPRLPRPRPRPLMRPRP,0.345
8,RRIRSRPPRLPRPRPRPDRHPRP,-0.0205
9,RRIRMRPPRLPRPRPRPDLCPRP,0.196
10,RRIRMRPPRLPRPRPRPLRMPRP,1.88
11,RRIRVRPPRLPRPRPRPTILPRP,-0.308
12,RRIRPRPPRLPRPRPRPFIQPRP,-0.671
13,RRIRTRPPRLPRPRPRPYSAPRP,-0.206
14,RRIRVRPPRLPRPRPRPKYWPRP,-0.126
15,RRIRHRPPRLPRPRPRPCDNPRP,-0.207
16,RRIRYRPPRLPRPRPRPKIDPRP,-0.344
17,RRIRDRPPRLPRPRPRPQMWPRP,-0.23
18,RRIRVRPPRLPRPRPRPTCSPRP,0.19
19,RRIRTRPPRLPRPRPRPSSFPRP,-0.284
20,RRIRLRPPRLPRPRPRPNHYPRP,-0.505
21,RRIRERPPRLPRPRPRPHIIPRP,-0.412
22,RRIRIRPPRLPRPRPRPVHQPRP,-0.398
23,RRIRWRPPRLPRPRPRPFEMPRP,-0.116
24,RRIRSRPPRLPRPRPRPSCMPRP,-0.129
25,RRIRHRPPRLPRPRPRPWAFPRP,0.0477

row,Sequence,shrunken log2 fold change
1,RRIRCRPPRLPRPRPRPCSHPRP,-1.29
2,RRIRQRPPRLPRPRPRPECWPRP,0.358
3,RRIRPRPPRLPRPRPRPNQLPRP,-0.258
4,RRIRWRPPRLPRPRPRPNAWPRP,0.826
5,RRIRLRPPRLPRPRPRPNEVPRP,-0.0062
6,RRIRMRPPRLPRPRPRPRRKPRP,0.416
7,RRIRQRPPRLPRPRPRPEYNPRP,-0.424
8,RRIRYRPPRLPRPRPRPRDAPRP,-0.103
9,RRIRTRPPRLPRPRPRPTYDPRP,-0.311
10,RRIRHRPPRLPRPRPRPWAGPRP,-0.15
11,RRIRQRPPRLPRPRPRPRLMPRP,0.00478
12,RRIRHRPPRLPRPRPRPMLGPRP,-0.00277
13,RRIRCRPPRLPRPRPRPPNTPRP,-0.0497
14,RRIRRRPPRLPRPRPRPILGPRP,0.0385
15,RRIRARPPRLPRPRPRPHEYPRP,-0.0609
16,RRIRPRPPRLPRPRPRPGIRPRP,0.105
17,RRIRCRPPRLPRPRPRPAQKPRP,-0.118
18,RRIRGRPPRLPRPRPRPANDPRP,0.902
19,RRIRCRPPRLPRPRPRPVKHPRP,-0.263
20,RRIRMRPPRLPRPRPRPKILPRP,0.289
21,RRIRKRPPRLPRPRPRPARNPRP,0.00491
22,RRIRERPPRLPRPRPRPISQPRP,-0.058
23,RRIRHRPPRLPRPRPRPKLCPRP,-0.114
24,RRIRKRPPRLPRPRPRPNWWPRP,-0.382
25,RRIRTRPPRLPRPRPRPEWQPRP,0.495

row,Sequence,shrunken log2 fold change
1,RRIRIRPPRLPRPRPRPWHAPRP,-0.0572
2,RRIRWRPPRLPRPRPRPFKWPRP,-0.223
3,RRIRYRPPRLPRPRPRPLCIPRP,-1.22
4,RRIRDRPPRLPRPRPRPSNEPRP,-1.13
5,RRIRRRPPRLPRPRPRPYPAPRP,0.0876
6,RRIRSRPPRLPRPRPRPQQIPRP,0.153
7,RRIRLRPPRLPRPRPRPDNVPRP,0.0219
8,RRIRERPPRLPRPRPRPGDAPRP,0.106
9,RRIRERPPRLPRPRPRPQSHPRP,-0.268
10,RRIRSRPPRLPRPRPRPTLHPRP,0.147
11,RRIRTRPPRLPRPRPRPSGKPRP,-0.0608
12,RRIRARPPRLPRPRPRPRKWPRP,1.28
13,RRIRRRPPRLPRPRPRPSKRPRP,-0.0523
14,RRIRLRPPRLPRPRPRPSLHPRP,-0.471
15,RRIRFRPPRLPRPRPRPVVMPRP,0.297
16,RRIRYRPPRLPRPRPRPLEHPRP,-0.26
17,RRIRRRPPRLPRPRPRPVHEPRP,0.381
18,RRIRNRPPRLPRPRPRPLPPPRP,0.5
19,RRIRTRPPRLPRPRPRPFYMPRP,-0.369
20,RRIRCRPPRLPRPRPRPWQWPRP,0.187
21,RRIRHRPPRLPRPRPRPQTHPRP,-0.143
22,RRIRWRPPRLPRPRPRPTLAPRP,0.754
23,RRIRPRPPRLPRPRPRPNLIPRP,-0.203
24,RRIRIRPPRLPRPRPRPMTHPRP,-0.996
25,RRIRVRPPRLPRPRPRPWLWPRP,0.475

row,Sequence,shrunken log2 fold change
1,RRIRGRPPRLPRPRPRPTHGPRP,0.487
2,RRIRRRPPRLPRPRPRPTHVPRP,0.427
3,RRIRARPPRLPRPRPRPMEGPRP,0.667
4,RRIRCRPPRLPRPRPRPGTFPRP,-0.0668
5,RRIRHRPPRLPRPRPRPGQQPRP,-0.028
6,RRIRMRPPRLPRPRPRPRQWPRP,0.0789
7,RRIRRRPPRLPRPRPRPDWNPRP,-0.223
8,RRIRVRPPRLPRPRPRPQGDPRP,-0.0558
9,RRIRERPPRLPRPRPRPCCMPRP,-0.831
10,RRIRCRPPRLPRPRPRPWLKPRP,-0.133
11,RRIRYRPPRLPRPRPRPWFKPRP,-0.12
12,RRIRNRPPRLPRPRPRPFGSPRP,-0.0105
13,RRIRGRPPRLPRPRPRPELMPRP,0.853
14,RRIRARPPRLPRPRPRPMVMPRP,-0.00579
15,RRIRTRPPRLPRPRPRPYWSPRP,0.00748
16,RRIRGRPPRLPRPRPRPRKFPRP,0.399
17,RRIRIRPPRLPRPRPRPNLWPRP,-0.132
18,RRIRMRPPRLPRPRPRPEKSPRP,2
19,RRIRHRPPRLPRPRPRPKGIPRP,-0.092
20,RRIRRRPPRLPRPRPRPNSYPRP,-0.116
21,RRIRSRPPRLPRPRPRPVFKPRP,-0.29
22,RRIRCRPPRLPRPRPRPVITPRP,-0.496
23,RRIRFRPPRLPRPRPRPTLGPRP,0.175
24,RRIRVRPPRLPRPRPRPFKPPRP,-0.132
25,RRIRKRPPRLPRPRPRPQYPPRP,0.131

row,Sequence,shrunken log2 fold change
1,RRIRCRPPRLPRPRPRPVPIPRP,0.0325
2,RRIRDRPPRLPRPRPRPCDEPRP,-0.00174
3,RRIRYRPPRLPRPRPRPTAHPRP,-0.466
4,RRIRFRPPRLPRPRPRPKPCPRP,0.3
5,RRIRYRPPRLPRPRPRPTKCPRP,-0.544
6,RRIRHRPPRLPRPRPRPTDKPRP,-0.185
7,RRIRTRPPRLPRPRPRPLCEPRP,-0.0895
8,RRIRRRPPRLPRPRPRPVLHPRP,0.0722
9,RRIRHRPPRLPRPRPRPNAYPRP,-0.219
10,RRIRDRPPRLPRPRPRPASVPRP,0.0326
11,RRIRFRPPRLPRPRPRPVVAPRP,0.0597
12,RRIRARPPRLPRPRPRPPTHPRP,0.398
13,RRIRWRPPRLPRPRPRPDCAPRP,0.97
14,RRIRLRPPRLPRPRPRPTGVPRP,-0.0506
15,RRIRFRPPRLPRPRPRPWHIPRP,-0.213
16,RRIRDRPPRLPRPRPRPWEMPRP,0.335
17,RRIRYRPPRLPRPRPRPTVTPRP,-0.283
18,RRIRDRPPRLPRPRPRPYRMPRP,-0.0515
19,RRIRNRPPRLPRPRPRPVLNPRP,-0.261
20,RRIRPRPPRLPRPRPRPEHNPRP,-0.169
21,RRIRWRPPRLPRPRPRPATFPRP,0.311
22,RRIRWRPPRLPRPRPRPATVPRP,0.111
23,RRIRFRPPRLPRPRPRPHWNPRP,-0.653
24,RRIRCRPPRLPRPRPRPGPAPRP,0.543
25,RRIRKRPPRLPRPRPRPPFQPRP,0.119

row,Sequence,shrunken log2 fold change
1,RRIRFRPPRLPRPRPRPNYYPRP,-0.613
2,RRIRRRPPRLPRPRPRPPRSPRP,0.904
3,RRIRARPPRLPRPRPRPHEMPRP,0.588
4,RRIRGRPPRLPRPRPRPAIEPRP,0.942
5,RRIRHRPPRLPRPRPRPTMHPRP,-0.0232
6,RRIRVRPPRLPRPRPRPRWVPRP,0.309
7,RRIRNRPPRLPRPRPRPTPSPRP,0.338
8,RRIRGRPPRLPRPRPRPDAKPRP,2
9,RRIRARPPRLPRPRPRPGCSPRP,0.505
10,RRIRNRPPRLPRPRPRPYFEPRP,-0.797
11,RRIRDRPPRLPRPRPRPGSRPRP,0.0273
12,RRIRDRPPRLPRPRPRPRLYPRP,-0.0462
13,RRIRYRPPRLPRPRPRPTTIPRP,-0.769
14,RRIRLRPPRLPRPRPRPSFRPRP,-0.358
15,RRIRNRPPRLPRPRPRPLGWPRP,0.367
16,RRIRPRPPRLPRPRPRPEWKPRP,-0.00168
17,RRIRHRPPRLPRPRPRPKLEPRP,-0.0604
18,RRIRDRPPRLPRPRPRPCNAPRP,0.0759
19,RRIRWRPPRLPRPRPRPHDAPRP,-0.145
20,RRIRRRPPRLPRPRPRPTDSPRP,0.485
21,RRIRERPPRLPRPRPRPGEEPRP,0.175
22,RRIRLRPPRLPRPRPRPTKHPRP,-0.14
23,RRIRFRPPRLPRPRPRPQITPRP,-0.481
24,RRIRARPPRLPRPRPRPQNQPRP,-0.141
25,RRIRFRPPRLPRPRPRPYPWPRP,-0.9
